From paper PMC7290032 (Nature Communications, 2020)

Biological target: MCM8-9 complex, purified (human, UniProt Q9NXL9-1 1-1143; Q9UJA3-1 1-840)
Experiment: cell-based or functional assay

MCM8-9 complex, purified, sequence (Q9NXL9 whole entry, chain 1 of 2): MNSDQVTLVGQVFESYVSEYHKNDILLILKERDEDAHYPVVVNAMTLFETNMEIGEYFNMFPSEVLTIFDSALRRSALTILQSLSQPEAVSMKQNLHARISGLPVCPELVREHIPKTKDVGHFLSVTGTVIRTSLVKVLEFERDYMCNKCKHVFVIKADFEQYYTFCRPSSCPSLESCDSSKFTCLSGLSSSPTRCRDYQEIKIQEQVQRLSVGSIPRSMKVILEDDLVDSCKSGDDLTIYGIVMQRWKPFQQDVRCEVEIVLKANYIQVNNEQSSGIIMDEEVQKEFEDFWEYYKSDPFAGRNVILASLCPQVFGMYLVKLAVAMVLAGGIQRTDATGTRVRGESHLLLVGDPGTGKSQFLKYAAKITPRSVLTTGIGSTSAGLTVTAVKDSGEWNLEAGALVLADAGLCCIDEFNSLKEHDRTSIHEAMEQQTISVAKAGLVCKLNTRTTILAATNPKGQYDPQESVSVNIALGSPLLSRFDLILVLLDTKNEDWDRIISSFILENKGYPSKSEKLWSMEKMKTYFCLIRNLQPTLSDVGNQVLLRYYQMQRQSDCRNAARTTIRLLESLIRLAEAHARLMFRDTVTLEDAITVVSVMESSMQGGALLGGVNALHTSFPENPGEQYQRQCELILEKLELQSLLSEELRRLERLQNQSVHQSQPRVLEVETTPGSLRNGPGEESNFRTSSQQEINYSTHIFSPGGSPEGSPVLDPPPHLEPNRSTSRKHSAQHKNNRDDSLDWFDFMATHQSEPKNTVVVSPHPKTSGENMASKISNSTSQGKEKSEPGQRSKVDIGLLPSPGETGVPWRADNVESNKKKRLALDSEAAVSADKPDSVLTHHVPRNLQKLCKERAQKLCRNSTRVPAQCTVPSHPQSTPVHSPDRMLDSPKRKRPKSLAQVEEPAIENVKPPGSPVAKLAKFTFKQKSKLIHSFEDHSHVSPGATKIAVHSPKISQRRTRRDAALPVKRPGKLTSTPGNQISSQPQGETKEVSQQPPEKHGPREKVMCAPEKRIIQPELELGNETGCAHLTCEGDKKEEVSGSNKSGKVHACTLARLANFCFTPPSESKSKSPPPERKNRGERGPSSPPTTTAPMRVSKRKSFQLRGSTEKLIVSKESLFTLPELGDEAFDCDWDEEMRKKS
MCM8-9 complex, purified, sequence (Q9UJA3 whole entry, chain 2 of 2): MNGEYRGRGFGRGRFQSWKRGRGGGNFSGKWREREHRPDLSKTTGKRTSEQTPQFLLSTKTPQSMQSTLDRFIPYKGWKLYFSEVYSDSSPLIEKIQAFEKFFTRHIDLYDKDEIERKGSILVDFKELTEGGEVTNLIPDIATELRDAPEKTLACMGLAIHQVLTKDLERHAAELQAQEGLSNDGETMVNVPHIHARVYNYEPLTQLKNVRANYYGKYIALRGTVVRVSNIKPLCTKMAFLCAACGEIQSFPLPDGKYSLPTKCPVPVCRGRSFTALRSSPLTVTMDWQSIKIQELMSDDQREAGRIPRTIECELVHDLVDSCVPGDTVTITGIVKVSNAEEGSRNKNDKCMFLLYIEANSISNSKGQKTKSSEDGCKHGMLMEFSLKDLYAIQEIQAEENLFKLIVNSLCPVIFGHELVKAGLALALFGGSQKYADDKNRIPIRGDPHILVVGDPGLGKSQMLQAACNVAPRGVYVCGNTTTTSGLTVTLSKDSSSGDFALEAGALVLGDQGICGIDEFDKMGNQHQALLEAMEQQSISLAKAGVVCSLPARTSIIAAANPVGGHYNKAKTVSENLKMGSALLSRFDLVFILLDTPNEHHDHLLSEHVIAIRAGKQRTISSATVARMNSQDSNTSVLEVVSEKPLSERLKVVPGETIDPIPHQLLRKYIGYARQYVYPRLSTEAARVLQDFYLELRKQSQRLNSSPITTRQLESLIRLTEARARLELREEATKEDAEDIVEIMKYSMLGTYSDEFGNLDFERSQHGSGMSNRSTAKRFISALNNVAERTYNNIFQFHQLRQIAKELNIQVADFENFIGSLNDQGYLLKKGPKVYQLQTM

B1: MCM8IP-FLAG WT (recombinant) (natural protein, human, UniProt Q8N3J3-4 1-646, looked up)
chain: MACSLQKLFAVEEEFEDEDFLSAVEDAENRFTGSLPVNAGRLRPVSSRPQETVQAQSSRLLLLHPTAPSEALGLPDLDLCLPASSTPSADSRPSCIGAAPLRPVSTSSSWIGNQRRVTVTEVLRETARPQSSALHPLLTFESQQQQVGGFEGPEQDEFDKVLASMELEEPGMELECGVSSEAIPILPAQQREGSVLAKKARVVDLSGSCQKGPVPAIHKAGIMSAQDESLDPVIQCRTPRPPLRPGAVGHLPVPTALTVPTQQLHWEVCPQRSPVQALQPLQAARGTIQSSPQNRFPCQPFQSPSSWLSGKAHLPRPRTPNSSCSTPSRTSSGLFPRIPLQPQAPVSSIGSPVGTPKGPQGALQTPIVTNHLVQLVTAASRTPQQPTHPSTRAKTRRFPGPAGILPHQQSGRSLEDIMVSAPQTPTHGALAKFQTEIVASSQASVEEDFGRGPWLTMKSTLGLDERDPSCFLCTYSIVMVLRKAALKQLPRNKVPNMAVMIKSLTRSTMDASVVFKDPTGEMQGTVHRLLLETCQNELKPGSVLLLKQIGVFSPSLRNHYLNVTPNNLVHIYSPDSGDGSFLKPSQPFPKDSGSFQHDVAAKPEEGFRTAQNLEAEASPEEELPEADDLDGLLSELPEDFFCGTSS
  DNA unwinding (helicase assay): 32P-labelled oligo annealed to M13mp18 ssDNA, MCM8-9 100 nM, MCM8IP 50 nM, with ATP: ~6 fold
